From patent US12043671B2, “Antibodies targeting an amphiregulin-derived cell surface neo-epitope” (Gundersen Lutheran Medical Foundation, Inc., priority 2021, dated 2024)
Non-standard residues stand in square brackets, D forms with d. Residues, ends and D or L forms follow the SMILES beside them. *: point of attachment. Dolaproine = CO[C@@H]([C@@H]1CCCN1)[C@@H](C)C(=O)O; Dil = CC[C@H](C)[C@H](NC)[C@@H](CC(=O)O)OC; X1 = C[C@@H](N*)[C@@H](O)c1ccccc1; NMeV = CN[C@H](C(=O)O)C(C)C

Tests used:
[1] = test system: MCF7 breast cancer cells; experiment: MTT cytotoxicity assay; conditions: MCF7, 1.56-200 nM, 72 h
Description: (§1) The cells were seeded at a density of 5000 cells/well in 96-well plates. Approximately 24 h after cell seeding, the cells were treated with varying doses (1.56, 3.125, 6.25, 12.5, 25, 50, 100 and 200 nM) of MMAE, 1A3 and 1A3-VC-PAB-MMAE. Untreated cells were used as control. After incubating for 72 h, the medium was aspirated and 50 μL of serum-free media and 50 μL of MTT solution (5 mg/mL solution in PBS) was added into each well; the cells were then incubated for 3 h at 37° C. The formazan crystals formed were dissolved with 4 mM HCl, 0.1% NP40 in isopropanol. The absorbance was measured at 590 nm using VersaMax Microplate Reader (Molecular Devices LLC, San Jose, California, USA). The assays were performed in triplicate.

[2] = test system: MCF7-F (fulvestrant-resistant MCF7) breast cancer cells; experiment: MTT cytotoxicity assay; conditions: 1.56-200 nM, 72 h
Description: as §1

[3] = test system: MCF-7 cells; experiment: Tubulin staining (microtubule integrity); format: cell-based, human; conditions: 48 h treatment
Description: FIGS. 4A-4E. In vitro 1A3-MMAE cytotoxicity in MCF-7 (FIG. 4A) and MCF-7F (FIG. 4B) cells measured by MTT assay after treatment with 1A3-MMAE, 1A3 or MMAE. FIG. 4C: Clonogenic growth of MCF-7 or MCF-7F cells after exposure to 1A3-MMAE and replating. FIG. 4D: The quantification of clonogenic growth assays in FIG. 4C. (FIG. 4E). Tubulin staining of MCF-7 cells after 48 h treatment with MMAE, 1A3, 1A3-MMAE (40× magnification).

[4] = biological target: T1, peptide representing the neo-epitope of the ADAM17-cleavage product of human AREG (Homo sapiens, UniProt P15514); experiment: ELISA of rabbit IgG candidates against peptides representing cleaved and full length AREG; format: binding; conditions: IgG format; cleaved vs uncleaved AREG peptide
T1 construct: host or cells: synthetic peptide
Description: FIGS. 1A-1C. Isolation of antibodies that selectively recognize a peptide representing cleaved AREG. FIG. 1A: Schematic representation of the AREG cleavage and EGFR activation process, one consequence of which is the internalization of the small transmembrane fragment that remains cell-associated after TACE/ADAM17-mediated cleavage. FIG. 1B: Schematic representation of phage panning strategy using a peptide representing the cleaved AREG neo-epitope adhered to the well and a peptide representing the non-cleaved AREG region in the liquid phase.
Rabbit monoclonal IgG antibodies specific to cleaved-AREG were identified in contracted screening (Oak Biosciences Inc., Sunnyvale, CA, USA) using a recombinant Rabbit naïve phage display library (scFv format, VK-linker-VH) screening platform after four rounds of panning and ELISA validation. For panning, phage was selected against a peptide modeling the ADAM17-cleaved cell-associated epitope of AREG,^12 represented by the N-terminal region of THSMIDSSLSKI (SEQ ID NO: 2), and counter-selected against a peptide spanning this region (SMKTHSMIDSSLSKIAC; SEQ ID NO: 9), representing uncleaved AREG. […] GMF-1A3, referred to hereafter as simply “1A3”, was the antibody chosen for further characterization in this Example.

[5] = test system: MCF7 cells; experiment: Internalization and intracellular localization of 1A3-pHrodo, live-cell imaging; format: cell-based, human
Description: In order to study internalization, 1A3 was conjugated with pHrodo iFL Red dye using pHrodo iFL Red Microscale Protein Labeling Kit (P36014, Thermo Fisher Scientific). MCF7 cells were seeded in 12 mm Nunc Glass Bottom Dish, at a density of 1 ×10^5 cells/dish. After allowing the cells to attach overnight, the cells were incubated for 60 min with […] Hoechst dye for nuclei staining and LysoTracker® Green DND-26 (Thermo Fisher Scientific) for lysosomal labeling. The cells were then incubated with 1A3-pHrodo (2 μg/mL) for 20 min at 37° C. After washing the wells with PBS, the cells were supplemented with 1× live-cell imaging solution (Molecular probes, Thermo Fisher Scientific). Fluorescence images were acquired at 30 min intervals for 2.5 h with the Olympus 1×71 inverted fluorescence microscope (Olympus, Shinjuku, Tokyo, Japan). TAPI-2 (20 μM)—pre-treatment was performed overnight, with DMSO serving as a control.

## CC[C@H](C)[C@@H]([C@@H](CC(=O)N1CCC[C@H]1[C@H](OC)[C@@H](C)C(=O)N[C@H](C)[C@@H](O)c1ccccc1)OC)N(C)C(=O)[C@@H](NC(=O)[C@@H](NC)C(C)C)C(C)C [MMAE, monomethyl auristatin E, reference compound] (H-[NMeV]V[Dil][Dolaproine]-X1)
[1]
  cytotoxicity by MTT assay: potently killed the cells
[2]
  cytotoxicity by MTT assay: potently killed the cells
[3]
  tubulin disruption (microtubule integrity): exhibited tubulin disruption

B1: GMF-3A3: Rabbit monoclonal IgG specific to cleaved AREG; VH SEQ ID NO: 5, VL SEQ ID NO: 6 (antibody, V domains shown)
VH: QQQLVESGGRLVTPGTPLTLTYTVSGFSLSDYHMSWVRQAPGKGLQWIATISNRGNTYYASWAKGRFTISKTSTTVDLKITSPTTEDTATYFCARDNVHGDGVLVFYLWGPGTLVTVSS
VL: AELVMTQTPASVSEPVGGTVTIKCQASQSIGTNLAWYQQKPGQPPKRLIYKASTLASGVSSRFKGSGSGTEFTLTISDLECADAATYYCQGYYSGDSNAFGGGTEVVVK
modifications: 3A3 antibody, Heavy chain; 3A3 antibody, Light chain
[4]
  selectivity for cleaved AREG by ELISA: selectivity for cleaved AREG was confirmed

B2: GMF-3E4: Rabbit monoclonal IgG specific to cleaved AREG; VH SEQ ID NO: 7, VL SEQ ID NO: 8 (antibody, V domains shown)
VH: QSVKESEGRLVTPGTPLTLTCTVSGFSLSDYWMSWVRQAPGKGLEWIGIAGYSDNTYYASRAKGRFTISKTSTTVVLKITRPTTEDTATYFCVRDLYGVYSSGTTLWGPGTLVTVSS
VL: AELVMTQTPSPVSAAVGGTVTISCQSSQSVYNNNRLAWFQQKPGQPPKLLIYYASTLASGVSSRFKGSGSGTQFTLIISDVVCDDAATYYCQGYYSGGITGFGGGTEVVVK
modifications: 3E4 antibody, Heavy chain; 3E4 antibody, Light chain
[4]
  selectivity for cleaved AREG by ELISA: selectivity for cleaved AREG was confirmed

B3: 1A3-pHrodo (conjugate)
VH: QSVKESEGRLVTPGTPLRLTCTVAGYSLSRYHMCWVRQAPGKGLEWIGMIGGSGRTDYASWAKGRFTISKTSTTVDLKITSPTTEDTATYFCSTVYTDSDGDFWGPGTLVTVSS
VL: AELDMTQTPSSKSVPVGGTVTINCQASESVYSNDRLAWFQQKPGQPPKLLIYYASTLASGVPSRFKGSGSGTQFTLTISDLECADAATYYCQSCYDMSSYGVAFGGGTELEIL
[5]; 1A3-pHrodo 2 μg/mL
  time of treatment after which red fluorescence (presence in acidic endosomes) was evident: 30 min
[5]; TAPI-2 20 μM overnight pre-treatment
  fluorescence development after pretreatment with ADAM17 inhibitor TAPI-2: prevented the development of fluorescence
